Experimental data: paper PMC9897464 (2022)

B1: Cg1735CD (catalytic domain, residues 460 to 600) (domain or fragment)
chain: DRSAQIETVIARAMSQLGVQYAWGGGNANGPTLGIRDGGVADSYGDYNKVGFDCSGLTLYAFAGVGISLPHYTGYQYQHGTKVSPSEMQRGDLIFYGPGASQHVAIYLGDGQMIEAPNSGSVVKISPVRWSGMTESVVRLI

Legend:
[1] = target: biotinylated Cg1735ΔCD (residues 20 to 386) (Corynebacterium glutamicum ATCC13032); experiment: BLI; biotinylated Cg1735ΔCD immobilised on streptavidin biosensors; Cg1735CD 20 to 0.3125 μM or Cg1604 200 to 3.125 μM; 25 °C; HEPES 25 mM pH 7.5, NaCl 150 mM, glycerol 5%, BSA 1 mg/mL; steady-state, one-site model; apparent Kd
[2] = target: His_SUMO_Cg1735CC1 (CC1 domain, residues 20 to 238) (Corynebacterium glutamicum ATCC13032); experiment: BLI; His_SUMO_Cg1735CC1 immobilised on Ni-NTA biosensors; Cg1735CD 20 to 0.3125 μM; 25 °C; HEPES 25 mM pH 7.5, NaCl 150 mM, glycerol 5%, BSA 1 mg/mL; steady-state, one-site model; apparent Kd
[3] = target: T1, biotinylated Cg1735ΔCD (residues 20 to 386) (Corynebacterium glutamicum ATCC13032, biotin (EZ-Link NHS-PEG4-Biotin, 20 molar excess; sites not stated)); experiment: BLI
T1 chain: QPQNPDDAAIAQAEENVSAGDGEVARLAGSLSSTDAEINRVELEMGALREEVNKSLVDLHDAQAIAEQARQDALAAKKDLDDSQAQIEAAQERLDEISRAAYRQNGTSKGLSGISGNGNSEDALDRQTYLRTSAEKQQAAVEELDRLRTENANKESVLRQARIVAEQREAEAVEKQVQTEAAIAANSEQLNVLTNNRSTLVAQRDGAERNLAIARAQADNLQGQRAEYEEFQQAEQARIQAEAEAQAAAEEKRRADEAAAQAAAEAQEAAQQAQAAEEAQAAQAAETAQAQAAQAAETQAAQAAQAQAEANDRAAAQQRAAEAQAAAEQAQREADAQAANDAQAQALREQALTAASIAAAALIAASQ

Molecule | Kd [1] [nM] | Kd [2] [nM] | Kd [3] [nM]
Cg1604 (globular periplasmic domain, residues 36 to 295) (domain or fragment) | 56000 |  | 
B1 |  | 1200 | 1900
